In patent publication US20090192048A1, “METHOD OF PRODUCING A […] AGENT FOR BINDING A LIGAND” (priority 2005, published 2009):
Ends that are not written are not given here.

What was measured:
Type in all cases: physicochemical
[1] = Retention of peptides in flat-bottomed polypropylene wells; details: flat-bottom wells, 500V scan
Summary of the method: (§1)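 1 μl of 10 μM peptide or TAMRA in 10 mM Tris-HCl pH 8.0/50% acetonitrile dried in the dark in flat- or V-bottomed polypropylene wells. Some wells washed 15 min at RT with 1 M NaCl in 10 mM Tris pH 8.0, others left untreated; all redissolved in 50 μl Tris/acetonitrile and fluorescence imaged at 532 nm excitation, 580 BP 30 filter.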

[2] = Retention of peptides on Greiner polystyrene V-bottom wells; details: 400V scan
Summary of the method: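 Peptides (5 μM) and TAMRA dried from 5 mM tris-HCl pH 8.0 in 75% acetonitrile in V-bottom wells; some wells washed 15 min at room temperature with 1 M NaCl in 10 mM tris-HCl pH 8.0. Residue redissolved in 10 mM tris-HCl pH 8.0/50% acetonitrile; retained fluorescence imaged with 532 nm excitation, 580 BP 30 filter.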

[3] = Retention of peptides in V-bottomed polypropylene wells; details: V-bottom wells, 500V scan
Summary of the method: as §1

[4] = washed 15 minutes in 1 M NaCl in 10 mM tris-HCl (pH 8.0)

N-TAMRA-Phe-Asp- Phe-Ala-Phe-Ser- Phe-Lys-Phe-C ({TAMRA}-FDFAFSFKF) [Peptide 2DOS-2]
Percent retention [1]: 93% | Untreated fluorescence ([1]; unwashed): 15,820,680 | Retained fluorescence [1, 4]: 14,665,720 | Percent retention [2]: 64% | Untreated fluorescence ([2]; unwashed): 614,203 | Retained fluorescence [2, 4]: 392,422 | Percent retention [3]: 86% | Untreated fluorescence ([3]; unwashed): 9,495,183 | Retained fluorescence [3, 4]: 8,127,309
